Measurements: PMC9239117

Legend:
[1] = target: Human metapneumovirus (HMPV) phosphoprotein (P), strain CAN97-83 (Human metapneumovirus (strain CAN97-83)) (UniProt Q8B9Q8)
[2] = target: Human metapneumovirus (HMPV) phosphoprotein (P), strain CAN97-83 (Human metapneumovirus (strain CAN97-83)) (UniProt Q8B9Q8); remark: listed apart in the source

Molecule | turbidity assay, absorbance at 395 nm against time (5-min intervals), N^0-P (40 uM) with anion exchange-purified P (40 uM), against N^0-P alone (peak above 0.6) (absorbance at 395 nm) [1] | turbidity assay, absorbance at 395 nm against time (5-min intervals), N-RNA (40 uM) with heparin-purified P (40 uM), against N-RNA alone (absorbance at 395 nm) [2]
HMPV N^0-P construct: full-length N (1 to 394) fused to a P peptide (1 to 40) (from UniProt Q6WBA1 1-394; Q8B9Q8 1-40) | 0.3 | –
HMPV wild-type nucleoprotein N, RNA-bound rings (N-RNA), strain CAN97-83 (natural protein) MSLQGIHLSDLSYKHAILKESQYTIKRDVGTTTAVTPSSLQQEITLLCGEILYAKHADYKYAAEIGIQYISTALGSERVQQILRNSGSEVQVVLTRTYSLGKVKNNKGEDLQMLDIHGVEKSWVEEIDKEARKTMATLLKESSGNIPQNQRPSAPDTPIILLCVGALIFTKLASTIEVGLETTVRRANRVLSDALKRYPRMDIPKIARSFYDLFEQKVYYRSLFIEYGKALGSSSTGSKAESLFVNIFMQAYGAGQTMLRWGVIARSSNNIMLGHVSVQAELKQVTEVYDLVREMGPESGLLHLRQSPKAGLLSLANCPNFASVVLGNASGLGIIGMYRGRVPNTELFSAAESYAKSLKESNKINFSSLGLTDEEKEAAEHFLNVSDDSQNDYE | – | 0.2
